# In paper PMC4027194:
# Test system: G5 1297-1412 (RBS1)
# Test: EMSA
substance,measurement,value
FMDV IRES domain 5,Kd,20 µM
